Data from the Immune Epitope Database (IEDB).
pIC50: −log10 of the molar value.

Experiments:
Assay in all cases: IEDB peptide-MHC binding, purified MHC/competitive/radioactivity; ≥ and ≤ were set here for values at or beyond the usual limits of such assays
HLA-A*02:06 = molecular target: HLA-A*02:06
HLA-A*02:02 = molecular target: HLA-A*02:02
HLA-A*68:02 = molecular target: HLA-A*68:02
HLA-A*02:01 = molecular target: HLA-A*02:01
HLA-A*02:03 = molecular target: HLA-A*02:03
[1] = source organism: Vaccinia virus WR
[2] = source organism: Influenza A virus
[3] = source organism: Mammarenavirus choriomeningitidis
[4] = source organism: Hepacivirus hominis

Sequence | pIC50 (HLA-A*02:06; [1]) | pIC50 (HLA-A*02:02; [1]) | pIC50 (HLA-A*68:02; [1]) | pIC50 (HLA-A*02:01; [1]) | pIC50 (HLA-A*02:03; [1]) | other results
FVATFRDML | 6.31 | 5.63 | 7.92 | 5.65 | 6.69 | –
FVDGVPFVV | – | – | – | – | – | pIC50 (HLA-A*02:06; source organism: SARS-CoV1): 9.04; pIC50 (HLA-A*02:02; source organism: SARS-CoV1): 8.02; pIC50 (HLA-A*68:02; source organism: SARS-CoV1): 6.77; pIC50 (HLA-A*02:01; source organism: SARS-CoV1): 9.01; pIC50 (HLA-A*02:03; source organism: SARS-CoV1): 7.07
YVSVMNFIPI | 9.96 | 6.47 | 7.26 | 6.90 | 6.82 | –
TLDAANHSI | – | – | – | – | – | pIC50 (HLA-A*02:06; source organism: SARS-CoV1): 7.54; pIC50 (HLA-A*02:02; source organism: SARS-CoV1): 7.04; pIC50 (HLA-A*68:02; source organism: SARS-CoV1): 5.99; pIC50 (HLA-A*02:01; source organism: SARS-CoV1): 8.02; pIC50 (HLA-A*02:03; source organism: SARS-CoV1): 6.55
MLFTKFFYL | – | – | – | – | – | pIC50 (HLA-A*02:06; source organism: SARS-CoV1): 8.85; pIC50 (HLA-A*02:02; source organism: SARS-CoV1): 10.07; pIC50 (HLA-A*68:02; source organism: SARS-CoV1): 10.25; pIC50 (HLA-A*02:01; source organism: SARS-CoV1): 9.77; pIC50 (HLA-A*02:03; source organism: SARS-CoV1): 7.77
AIILASFSA | – | – | – | – | – | pIC50 (HLA-A*02:06; source organism: SARS-CoV1): 7.09; pIC50 (HLA-A*02:02; source organism: SARS-CoV1): 6.70; pIC50 (HLA-A*68:02; source organism: SARS-CoV1): 6.06; pIC50 (HLA-A*02:01; source organism: SARS-CoV1): 6.56; pIC50 (HLA-A*02:03; source organism: SARS-CoV1): 6.75
TILDDNLYKV | 7.31 | 5.97 | 5.85 | 6.62 | 5.79 | –
CLDAGINYV | – | – | – | – | – | pIC50 (HLA-A*02:06; source organism: SARS-CoV1): 8.80; pIC50 (HLA-A*02:02; source organism: SARS-CoV1): 9.24; pIC50 (HLA-A*68:02; source organism: SARS-CoV1): 7.10; pIC50 (HLA-A*02:01; source organism: SARS-CoV1): 9.04; pIC50 (HLA-A*02:03; source organism: SARS-CoV1): 8.19
IISYIILFIL | 5.41 | 7.18 | 5.68 | 6.24 | 6.31 | –
SLPSYAAYA | – | – | – | – | – | pIC50 (HLA-A*02:06; source organism: SARS-CoV1): 8.06; pIC50 (HLA-A*02:02; source organism: SARS-CoV1): 8.17; pIC50 (HLA-A*68:02; source organism: SARS-CoV1): 6.48; pIC50 (HLA-A*02:01; source organism: SARS-CoV1): 8.41; pIC50 (HLA-A*02:03; source organism: SARS-CoV1): 8.59
FTILEYLYIM | 7.40 | 6.45 | 5.66 | 7.02 | 5.49 | –
ITDNGPMPYM | 6.52 | 6.08 | 6.33 | 6.33 | 5.93 | –
VIADYNYKL | – | – | – | – | – | pIC50 (HLA-A*02:06; source organism: SARS-CoV1): 7.16; pIC50 (HLA-A*02:02; source organism: SARS-CoV1): 9.32; pIC50 (HLA-A*68:02; source organism: SARS-CoV1): 6.54; pIC50 (HLA-A*02:01; source organism: SARS-CoV1): 7.62; pIC50 (HLA-A*02:03; source organism: SARS-CoV1): 6.94
LAFVVFLLV | – | – | – | – | – | pIC50 (HLA-A*02:06; source organism: SARS-CoV1): 6.60; pIC50 (HLA-A*02:02; source organism: SARS-CoV1): 6.34; pIC50 (HLA-A*68:02; source organism: SARS-CoV1): 6.00; pIC50 (HLA-A*02:01; source organism: SARS-CoV1): 6.21; pIC50 (HLA-A*02:03; source organism: SARS-CoV1): 5.90
FISIYSRPKI | 6.40 | 7.64 | 6.23 | 6.87 | 6.99 | –
DTMSIYIAVA | 5.83 | 7.72 | 7.77 | 7.08 | 7.62 | –
MAGVEVRYI | 5.69 | 6.53 | 6.23 | 5.64 | 6.70 | –
ILATLNTLIT | 6.20 | 8.15 | 5.73 | 6.35 | 7.92 | –
ETIQKDINIT | 6.95 | 6.45 | 7.16 | 5.90 | 8.00 | –
TIDKSSPLYI | 5.74 | 6.41 | 5.81 | 5.72 | 7.92 | –
LIANIFTPLV | – | – | – | – | – | pIC50 (HLA-A*02:06; source organism: SARS-CoV1): 7.80; pIC50 (HLA-A*02:02; source organism: SARS-CoV1): 9.40; pIC50 (HLA-A*68:02; source organism: SARS-CoV1): 7.72; pIC50 (HLA-A*02:01; source organism: SARS-CoV1): 7.92; pIC50 (HLA-A*02:03; source organism: SARS-CoV1): 7.89
RVFKKIMSI | 7.12 | 6.46 | 6.77 | 7.10 | 9.74 | –
IQYRQQLEL | 7.39 | 6.29 | 5.45 | 6.59 | 7.35 | –
ETIEILRNYL | 9.55 | 6.32 | 9.89 | 6.03 | 5.85 | –
TTLLNETAKV | 5.78 | 5.78 | 6.63 | 5.54 | 9.77 | –
DLNIFMTLV | 5.66 | 5.72 | 6.72 | 5.95 | 6.25 | –
LVASSGTLEFI | – | – | – | – | – | pIC50 (HLA-A*02:06; [2]): 6.52; pIC50 (HLA-A*02:02; [2]): 6.82; pIC50 (HLA-A*68:02; [2]): 6.70; pIC50 (HLA-A*02:01; [2]): 5.43; pIC50 (HLA-A*02:03; [2]): 6.16

Sequence | pIC50 (HLA-A*02:06; [1]) | pIC50 (HLA-A*02:02; [1]) | pIC50 (HLA-A*68:02; [1]) | pIC50 (HLA-A*02:01; [1]) | pIC50 (HLA-A*02:03; [1]) | other results
AVYNFATCGI | – | – | – | – | – | pIC50 (HLA-A*02:06; [3]): 7.60; pIC50 (HLA-A*02:02; [3]): 7.60; pIC50 (HLA-A*68:02; [3]): 7.89; pIC50 (HLA-A*02:01; [3]): 6.86; pIC50 (HLA-A*02:03; [3]): 8.14
GILGFVFTLT | – | – | – | – | – | pIC50 (HLA-A*02:06; [2]): 6.21; pIC50 (HLA-A*02:02; [2]): 6.02; pIC50 (HLA-A*68:02; [2]): 6.14; pIC50 (HLA-A*02:01; [2]): 6.19; pIC50 (HLA-A*02:03; [2]): 6.04
ILEYLYIMRV | 6.87 | 7.13 | 5.87 | 7.52 | 7.08 | –
VLMTHFFSV | – | – | – | – | – | pIC50 (HLA-A*02:06; [4]): 8.21; pIC50 (HLA-A*02:02; [4]): 8.31; pIC50 (HLA-A*68:02; [4]): 6.99; pIC50 (HLA-A*02:01; [4]): 8.72; pIC50 (HLA-A*02:03; [4]): 8.59
FTILEYLYI | 6.57 | 5.81 | 7.66 | 7.17 | 6.77 | –
SIDHCSSFI | 6.70 | 6.20 | 7.57 | 6.61 | 7.89 | –
TLISSDGARV | 5.91 | 6.85 | 6.27 | 6.21 | 6.88 | –
AAVIIMAINV | 6.35 | 5.89 | 7.02 | 5.84 | 6.22 | –
SMMSFSAAL | – | – | – | – | – | pIC50 (HLA-A*02:06; [4]): 6.97; pIC50 (HLA-A*02:02; [4]): 8.29; pIC50 (HLA-A*68:02; [4]): 6.31; pIC50 (HLA-A*02:01; [4]): 7.89; pIC50 (HLA-A*02:03; [4]): 7.82
NVISKIYTL | 8.77 | 6.83 | 8.34 | 6.83 | 7.01 | –
ALYKGFQFI | – | – | – | – | – | pIC50 (HLA-A*02:06; source organism: SARS-CoV1): 8.70; pIC50 (HLA-A*02:02; source organism: SARS-CoV1): 9.28; pIC50 (HLA-A*68:02; source organism: SARS-CoV1): 5.35; pIC50 (HLA-A*02:01; source organism: SARS-CoV1): 8.28; pIC50 (HLA-A*02:03; source organism: SARS-CoV1): 8.48
NLFDIPLLT | 5.81 | 6.87 | 5.54 | 8.00 | 7.44 | –
IVAALVFLI | – | – | – | – | – | pIC50 (HLA-A*02:06; source organism: SARS-CoV1): 8.74; pIC50 (HLA-A*02:02; source organism: SARS-CoV1): 9.85; pIC50 (HLA-A*68:02; source organism: SARS-CoV1): 9.24; pIC50 (HLA-A*02:01; source organism: SARS-CoV1): 8.68; pIC50 (HLA-A*02:03; source organism: SARS-CoV1): 7.82
ALYSPPLISI | 6.79 | 8.85 | 6.49 | 5.95 | 6.82 | –
KVYLSTFNM | 6.58 | 6.32 | 5.74 | 6.27 | 6.10 | –
YVVVHGYFT | – | – | – | – | – | pIC50 (HLA-A*02:06; source organism: SARS-CoV1): 6.77; pIC50 (HLA-A*02:02; source organism: SARS-CoV1): 6.47; pIC50 (HLA-A*68:02; source organism: SARS-CoV1): 6.67; pIC50 (HLA-A*02:01; source organism: SARS-CoV1): 5.97; pIC50 (HLA-A*02:03; source organism: SARS-CoV1): 6.10
TVLTSVDIET | 6.02 | 5.76 | 5.52 | 5.90 | 6.04 | –
QLFKYVPSA | 6.46 | 7.92 | 5.79 | 8.15 | 8.11 | –
YTISSESLV | 7.27 | 6.28 | 8.48 | 5.97 | 7.42 | –
ATICLKNEGV | 7.38 | 6.36 | 7.06 | 6.62 | 7.15 | –
NLDDVYSYI | 7.04 | 9.14 | 5.99 | 8.42 | 7.02 | –
QIFNIISYI | 8.74 | 6.95 | 8.19 | 7.82 | 7.82 | –
TTFITVLTSV | 6.78 | 5.95 | 7.82 | 6.57 | 7.80 | –
GIFVDTMSI | 5.79 | 5.54 | 5.40 | 5.52 | 6.03 | –
MMNITRLEVI | 6.87 | 7.07 | 6.37 | 6.84 | 7.59 | –
MLPESDLDKV | 8.36 | 8.49 | 6.71 | 7.96 | 5.75 | –
